From patent US20210388110A1 (published 2021)
Substitutions are numbered along the chain they refer to.

B1: TR01H080-E22Hh/none-Hi-Kn010G3/L0000-k0 (antibody, human IgG1, kappa, L234A L235A, N297A)
heavy: QVQLVESGGGLVQPGRSLRLSCAASGFTFSNAWMHWVRQAPGKGLEWVAQIKDKSNNYATYYAESVKGRFTISRADSKNSIYLQMNSLKTEDTAVYYCRYVHYAAVRRRLSSYGVDIWGQGTTVTVSSASTKGPSVFPLAPSSKSTSGGTAALGCLVKDYFPEPVTVSWNSGALTSGVHTFPAVLQSSGLYSLSSVVTVPSSSLGTQTYICNVNHKPSNTKVDKKVEPKSCDKTHTCPPCPAPEAAGGPSVFLFPPKPKDTLMISRTPEVTCVVVDVSHEDPEVKFNWYVDGVEVHNAKTKPREEQYASTYRVVSVLTVLHQDWLNGKEYKCKVSNKALPAPIEKTISKAKGQPREPQVYTLPPSRCELTKNQVSLSCAVKGFYPSDIAVEWESNGQPENNYKTTPPVLDSDGSFFLVSKLTVDKSRWQQGNVFSCSVMHEALHNHYTQKSLSLSPDYKDDDDK
chain: EPKSSDKTHTCPPCPAPELLGGPSVFLFPPKPKDTLMISRTPEVTCVVVDVSHEDPEVKFNWYVDGVEVHNAKTKPREEQYNSTYRVVSVLTVLHQDWLNGKEYKCKVSNKALPAPIEKTISKAKGQPREPQVCTLPPSRDELTKNQVSLWCLVKGFYPSDIAVEWESNGQPENNYKTTPPVLDSDGSFFLYSKLTVDKSRWQQGNVFSCSVMHEALHNRYTQKSLSLSP
light: DIVMTQSPLSLPVTPGEPASISCRSSQSLVHSNRNTYLHWYQQKPGQAPRLLIYKVSNRFSGVPDRFSGSGSGTDFTLKISRVEAEDVGVYYCGQGTQVPYTFGQGTKLEIKRTVAAPSVFIFPPSDEQLKSGTASVVCLLNNFYPREAKVQWKVDNALQSGNSQESVTEQDSKDSTYSLSSTLTLSKADYEKHKVYACEVTHQGLSSPVTKSFNRGEC
notes: single-arm
B2: TR01H077-E22Hh/none-Hi-Kn010G3/L0200-k0 (antibody, human IgG1, kappa, L234A L235A, N297A)
heavy: QVQLVESGGGLVQPGRSLRLSCAASGFTFSNAWMHWVRQAPGKGLEWVAQIKDKSNNYATYYAESVKGRFTISRADSKNSIYLQMNSLKTEDTAVYYCRYVHYAAAEMVRDDIWGQGTTVTVSSASTKGPSVFPLAPSSKSTSGGTAALGCLVKDYFPEPVTVSWNSGALTSGVHTFPAVLQSSGLYSLSSVVTVPSSSLGTQTYICNVNHKPSNTKVDKKVEPKSCDKTHTCPPCPAPEAAGGPSVFLFPPKPKDTLMISRTPEVTCVVVDVSHEDPEVKFNWYVDGVEVHNAKTKPREEQYASTYRVVSVLTVLHQDWLNGKEYKCKVSNKALPAPIEKTISKAKGQPREPQVYTLPPSRCELTKNQVSLSCAVKGFYPSDIAVEWESNGQPENNYKTTPPVLDSDGSFFLVSKLTVDKSRWQQGNVFSCSVMHEALHNHYTQKSLSLSPDYKDDDDK
chain: B1 chain
light: B1 light with S25P, L29P
notes: single-arm
B3: TR01H079-E22Hh/none-Hi-Kn010G3/L0000-k0 (antibody, human IgG1, kappa, L234A L235A, N297A)
heavy: B1 heavy with V106A, R107E, R108M, R109V, L110R, S111D
chain: B1 chain
light: B1 light
notes: single-arm
B4: TR01H067-E22Hh/none-Hi-Kn010G3/L0000-k0 (antibody, human IgG1, kappa, L234A L235A, N297A)
heavy: QVQLVESGGGLVQPGRSLRLSCAASGFTFSNAWMHWVRQAPGKGLEWVAQIKDKSQNYATYYAESVKGRFTISRDDSKNSLYLQMNSLKTEDTAVYYCRYVHYAASYGVDAWGQGTTVTVSSASTKGPSVFPLAPSSKSTSGGTAALGCLVKDYFPEPVTVSWNSGALTSGVHTFPAVLQSSGLYSLSSVVTVPSSSLGTQTYICNVNHKPSNTKVDKKVEPKSCDKTHTCPPCPAPEAAGGPSVFLFPPKPKDTLMISRTPEVTCVVVDVSHEDPEVKFNWYVDGVEVHNAKTKPREEQYASTYRVVSVLTVLHQDWLNGKEYKCKVSNKALPAPIEKTISKAKGQPREPQVYTLPPSRCELTKNQVSLSCAVKGFYPSDIAVEWESNGQPENNYKTTPPVLDSDGSFFLVSKLTVDKSRWQQGNVFSCSVMHEALHNHYTQKSLSLSPDYKDDDDK
chain: B1 chain
light: B1 light
notes: one-arm antibody (single Fab) with Fab-less hinge-Fc chain Hi-Kn010G3
B5: TR01H022-E22Hh/none-Hi-Kn010G3/L0000-k0 (antibody, human IgG1, kappa, L234A L235A, N297A)
heavy: B4 heavy with R16G, D53G, E64P, D75A, L81I, A104S, A111I
chain: B1 chain
light: B1 light
notes: as for B4
B6: TR01H010-E22Hh/none-Hi-Kn010G3/L0000-k0 (antibody, human IgG1, kappa, L234A L235A, N297A)
heavy: B4 heavy with D53A, Q56N, D75A, L81I, A104S, S106Y, A111I
chain: B1 chain
light: B1 light
notes: as for B4
B7: TR01H040-E22Hh/none-Hi-Kn010G3/TR01L007-k0 (antibody, human IgG1, kappa, L234A L235A, N297A)
heavy: B4 heavy with D75A, L81I, A104S
chain: B1 chain
light: B1 light with R24Q, S25A, Q27E, Q42L, A48S, R50Q
notes: as for B4
B8: TR01H031-E22Hh/none-Hi-Kn010G3/L0000-k0 (antibody, human IgG1, kappa, L234A L235A, N297A)
heavy: B4 heavy with L11V, R16G, D53G, Q56N, D75A, L81I, A104S, A111I
chain: B1 chain
light: B1 light
notes: as for B4
B9: TR01H035-E22Hh/none-Hi-Kn010G3/L0000-k0 (antibody, human IgG1, kappa, L234A L235A, N297A)
heavy: B4 heavy with D53G, D75A, L81I, A104S, A111Y
chain: B1 chain
light: B1 light
notes: as for B4
B10: TR01H034-E22Hh/none-Hi-Kn010G3/L0000-k0 (antibody, human IgG1, kappa, L234A L235A, N297A)
heavy: B4 heavy with D53G, D75A, L81I, A104S
chain: B1 chain
light: B1 light
notes: as for B4
B11: TR01H040-E22Hh/none-Hi-Kn010G3/L0247-k0 (antibody, human IgG1, kappa, L234A L235A, N297A)
heavy: B4 heavy with D75A, L81I, A104S
chain: B1 chain
light: B1 light with L29P, L38I, H39Q, G94I
notes: as for B4
B12: TR01H040-E22Hh/none-Hi-Kn010G3/L0249-k0 (antibody, human IgG1, kappa, L234A L235A, N297A)
heavy: B4 heavy with D75A, L81I, A104S
chain: B1 chain
light: B1 light with S25P, L29P, L38I, H39Q, G94S
notes: as for B4
B13: TR01H011-E22Hh/none-Hi-Kn010G3/L0000-k0 (antibody, human IgG1, kappa, L234A L235A, N297A)
heavy: B4 heavy with D53A, Q56N, D75A, L81I, A104G, A111I
chain: B1 chain
light: B1 light
notes: as for B4
B14: TR01H015-E22Hh/none-Hi-Kn010G3/TR01L002-k0 (antibody, human IgG1, kappa, L234A L235A, N297A)
heavy: B4 heavy with D53G, Q56N, D75A, L81I, A104S, A111I
chain: B1 chain
light: B1 light with Q42L, A48S, R50Q
notes: as for B4
B15: TR01H040-E22Hh/none-Hi-Kn010G3/L0227-k0 (antibody, human IgG1, kappa, L234A L235A, N297A)
heavy: B4 heavy with D75A, L81I, A104S
chain: B1 chain
light: B1 light with L29P, L38I, G94L
notes: as for B4
B16: TR01H054-E22Hh/none-Hi-Kn010G3/L0000-k0 (antibody, human IgG1, kappa, L234A L235A, N297A)
heavy: B4 heavy with D75A, A104S, A111Y
chain: B1 chain
light: B1 light
notes: as for B4
B17: TR01H057-E22Hh/none-Hi-Kn010G3/L0000-k0 (antibody, human IgG1, kappa, L234A L235A, N297A)
heavy: B4 heavy with A104S
chain: B1 chain
light: B1 light
notes: as for B4
B18: TR01H040-E22Hh/none-Hi-Kn010G3/L0246-k0 (antibody, human IgG1, kappa, L234A L235A, N297A)
heavy: B4 heavy with D75A, L81I, A104S
chain: B1 chain
light: B1 light with L29P, L38I, H39Q, G94S
notes: as for B4
B19: TR01H040-E22Hh/none-Hi-Kn010G3/L0248-k0 (antibody, human IgG1, kappa, L234A L235A, N297A)
heavy: B4 heavy with D75A, L81I, A104S
chain: B1 chain
light: B1 light with S25P, L29P, L38I, H39Q, G94Y
notes: as for B4
B20: TR01H015-E22Hh/none-Hi-Kn010G3/TR01L004-k0 (antibody, human IgG1, kappa, L234A L235A, N297A)
heavy: B4 heavy with D53G, Q56N, D75A, L81I, A104S, A111I
chain: B1 chain
light: B1 light with R24Q, S25A, Q27E, L109V, K112E
notes: as for B4
B21: TR01H056-E22Hh/none-Hi-Kn010G3/L0000-k0 (antibody, human IgG1, kappa, L234A L235A, N297A)
heavy: B4 heavy with A104S, A111I
chain: B1 chain
light: B1 light
notes: as for B4
B22: TR01H023-E22Hh/none-Hi-Kn010G3/L0000-k0 (antibody, human IgG1, kappa, L234A L235A, N297A)
heavy: B4 heavy with R16G, D53G, D75A, L81I, A104S, A111I
chain: B1 chain
light: B1 light
notes: as for B4
B23: TR01H009-E22Hh/none-Hi-Kn010G3/L0000-k0 (antibody, human IgG1, kappa, L234A L235A, N297A)
heavy: B4 heavy with D53A, Q56N, E64P, D75A, L81I, A104G, S106Y, A111I
chain: B1 chain
light: B1 light
notes: as for B4
B24: TR01H021-E22Hh/none-Hi-Kn010G3/L0000-k0 (antibody, human IgG1, kappa, L234A L235A, N297A)
heavy: B4 heavy with D53G, Q56N, D75A, L81I, A104S
chain: B1 chain
light: B1 light
notes: as for B4
B25: TR01H040-E22Hh/none-Hi-Kn010G3/L0226-k0 (antibody, human IgG1, kappa, L234A L235A, N297A)
heavy: B4 heavy with D75A, L81I, A104S
chain: B1 chain
light: B1 light with L29P, L38I, G94I
notes: as for B4
B26: TR01H024-E22Hh/none-Hi-Kn010G3/L0000-k0 (antibody, human IgG1, kappa, L234A L235A, N297A)
heavy: B4 heavy with R16G, D53G, D75A, L81I, A104S
chain: B1 chain
light: B1 light
notes: as for B4
B27: TR01H053-E22Hh/none-Hi-Kn010G3/L0000-k0 (antibody, human IgG1, kappa, L234A L235A, N297A)
heavy: B4 heavy with D75A, A104S
chain: B1 chain
light: B1 light
notes: as for B4
B28: TR01H004-E22Hh//-Hi-Kn010G3/L0000-k0 (antibody, human IgG1, kappa, L234A L235A, N297A)
heavy: B4 heavy with L11V, D53A, Q56N, Y100R, A104Y, A105Y, S106Y
chain: B1 chain
light: B1 light
notes: one-arm antibody (single Fab) with Fab-less hinge-Fc chain Hi-Kn010G3; label '//-Hi-Kn010G3' read as none-Hi-Kn010G3
B29: CE115HA124-E22Hh//-Hi-Kn010G3/L0000-k0 (antibody, human IgG1, kappa, L234A L235A, N297A)
heavy: B4 heavy with L11V, D53A, K54L, Q56N, A104G, S106Y
chain: B1 chain
light: B1 light
notes: as for B28
B30: TR01H008-E22Hh/none-Hi-Kn010G3/L0000-k0 (antibody, human IgG1, kappa, L234A L235A, N297A)
heavy: B4 heavy with D53G, Q56N, D75A, L81I, A104G, S106Y, A111I
chain: B1 chain
light: B1 light
notes: as for B4

Molecular target: T1, soluble human CD3ε chain (human, UniProt P07766 23-126, limits assumed)
T1 construct: the text says soluble human CD3ε chain; also called human CD3 epsilon chain
Experiment: SPR (Biacore)
T1 sequence (P07766 23-126 limits assumed): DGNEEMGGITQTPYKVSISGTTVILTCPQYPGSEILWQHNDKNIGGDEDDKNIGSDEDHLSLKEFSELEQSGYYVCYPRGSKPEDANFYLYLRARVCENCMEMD

| Kd | Binder |
| --- | --- |
| 3.25 nM | B1 |
| 6.12 nM | B2 |
| 50.5 nM | B3 |

Molecular target: T2, soluble human CD3ε chain (human, UniProt P07766 23-126, limits assumed)
T2 construct: also called human CD3 epsilon chain
Experiment: SPR (Biacore), soluble human CD3ε chain
T2 sequence (P07766 23-126 limits assumed): as above

| Kd | Binder |
| --- | --- |
| 71.5 nM | B4 |
| 75.8 nM | B5 |
| 37.3 nM | B6 |
| 68.2 nM | B7 |
| 75.5 nM | B8 |
| 84.9 nM | B9 |
| 91.1 nM | B10 |
| 100 nM | B11 |
| 111 nM | B12 |
| 37.1 nM | B13 |
| 71.4 nM | B14 |
| 101 nM | B15 |
| 77.9 nM | B16 |
| 112 nM | B17 |
| 92.8 nM | B18 |
| 78.9 nM | B19 |
| 73.4 nM | B20 |
| 73.2 nM | B21 |
| 79.4 nM | B22 |
| 31.5 nM | B23 |
| 80.5 nM | B24 |
| 80.1 nM | B25 |
| 108 nM | B26 |
| 82.3 nM | B27 |
| 135 nM | B28 |
| 143 nM | B29 |
| 42.2 nM | B30 |
